Test results: patent publication US7999089, “RNA aptamers and the uses thereof” (Industry-Academic Cooperation Foundation, Dankook University)

Experiments:
[1] = biological target: T1, TCF-1 C200 (HMG domain) (Mus musculus, UniProt Q00417 Q00417:188-388); experiment: competition; excess unlabelled RNA did not compete with #10; conditions: tags: GST fusion, pGEX 4T-1
[2] = biological target: GST-β-catenin, full length (UniProt P35222 P35222:1-781); experiment: EMSA; stated as binding affinity for full length β-catenin; conditions: tags: GST fusion, E. coli; label: 32P (radiolabelled)
Experimental: After 8 cycles of SELEX selection, the selected sequences were digested with EcoRI and BamHI, followed by cloning into pUC19 to prepare pUC19-aptamer. To test for RNA binding, the RNA was radiolabeled as described previously (Kim & Jeong, Biochem. Biophys. Res. Commun 320:1181-1186, 2004), incubated with GST-β catenin and assayed by GST pull-down (Kim & Jeong, Biochem. Biophys. Res. Commun 320:1181-1186, 2004) or RNA-EMSA (RNA-Electrophoretic Mobility-Shift Assay) (Kim & Jeong, Biochem. Biophys. Res. Commun 320:1181-1186, 2004).

[3] = biological target: TCF-1 (full length) (Mus musculus, UniProt Q00417 Q00417:5-388); experiment: EMSA; specificity control; conditions: tags: GST fusion, pGEX 4T-1; label: 32P (radiolabelled)
[4] = biological target: HuR (UniProt Q15717 Q15717:1-326); experiment: EMSA; specificity control; conditions: label: 32P (radiolabelled)
[5] = biological target: GST (UniProt P08515 P08515:1-218); experiment: EMSA; specificity control; conditions: chain copies: 2; label: 32P (radiolabelled)
[6] = biological target: T1, TCF-1 C200 (HMG domain); experiment: competition; excess unlabelled RNA did not compete with #10; text partly contradictory; conditions: tags: GST fusion, pGEX 4T-1
[7] = biological target: T1, TCF-1 C200 (HMG domain); experiment: EMSA; conditions: tags: GST fusion, pGEX 4T-1; label: 32P 5'-end

T1 sequence (Q00417 188-388, one chain of several): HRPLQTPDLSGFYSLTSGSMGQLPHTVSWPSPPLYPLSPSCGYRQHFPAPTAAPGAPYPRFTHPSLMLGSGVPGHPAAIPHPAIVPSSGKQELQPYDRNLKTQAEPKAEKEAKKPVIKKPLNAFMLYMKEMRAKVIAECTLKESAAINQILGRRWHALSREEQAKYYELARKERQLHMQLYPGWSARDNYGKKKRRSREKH
Sequence of GST-β-catenin, full length (P35222 whole entry, the tested form may be a part, one chain of several): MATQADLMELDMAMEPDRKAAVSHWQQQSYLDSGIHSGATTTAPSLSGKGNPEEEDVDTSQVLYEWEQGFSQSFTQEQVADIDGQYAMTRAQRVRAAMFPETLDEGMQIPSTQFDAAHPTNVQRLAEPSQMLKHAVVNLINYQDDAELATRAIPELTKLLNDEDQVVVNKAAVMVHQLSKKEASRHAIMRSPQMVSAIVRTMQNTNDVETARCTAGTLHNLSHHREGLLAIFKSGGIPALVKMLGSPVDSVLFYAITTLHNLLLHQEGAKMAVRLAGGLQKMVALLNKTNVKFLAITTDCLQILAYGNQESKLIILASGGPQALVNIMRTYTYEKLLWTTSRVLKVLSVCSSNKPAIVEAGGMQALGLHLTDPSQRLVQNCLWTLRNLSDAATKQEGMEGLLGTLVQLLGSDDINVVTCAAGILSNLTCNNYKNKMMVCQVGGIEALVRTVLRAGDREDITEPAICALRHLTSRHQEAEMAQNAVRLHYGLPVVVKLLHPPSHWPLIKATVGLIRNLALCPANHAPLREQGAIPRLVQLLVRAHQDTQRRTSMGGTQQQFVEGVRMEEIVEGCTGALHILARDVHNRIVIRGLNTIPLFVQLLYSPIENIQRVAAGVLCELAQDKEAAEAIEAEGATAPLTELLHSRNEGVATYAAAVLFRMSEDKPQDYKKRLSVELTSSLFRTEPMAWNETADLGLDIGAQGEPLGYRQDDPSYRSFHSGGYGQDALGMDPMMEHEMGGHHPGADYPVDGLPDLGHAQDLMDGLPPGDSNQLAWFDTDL
Sequence of TCF-1 (full length) (Q00417 5-388, one chain of several): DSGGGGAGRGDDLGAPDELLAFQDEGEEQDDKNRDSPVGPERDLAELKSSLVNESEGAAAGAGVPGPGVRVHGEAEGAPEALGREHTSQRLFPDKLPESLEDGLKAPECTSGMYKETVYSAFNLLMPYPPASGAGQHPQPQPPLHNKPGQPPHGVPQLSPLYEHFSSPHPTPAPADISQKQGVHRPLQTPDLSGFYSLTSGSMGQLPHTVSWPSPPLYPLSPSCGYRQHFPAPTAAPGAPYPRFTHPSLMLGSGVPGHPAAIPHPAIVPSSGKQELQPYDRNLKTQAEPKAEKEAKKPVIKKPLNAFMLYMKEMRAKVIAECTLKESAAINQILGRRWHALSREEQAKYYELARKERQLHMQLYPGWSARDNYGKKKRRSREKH
Sequence of GST (P08515 whole entry, the tested form may be a part, one chain of several): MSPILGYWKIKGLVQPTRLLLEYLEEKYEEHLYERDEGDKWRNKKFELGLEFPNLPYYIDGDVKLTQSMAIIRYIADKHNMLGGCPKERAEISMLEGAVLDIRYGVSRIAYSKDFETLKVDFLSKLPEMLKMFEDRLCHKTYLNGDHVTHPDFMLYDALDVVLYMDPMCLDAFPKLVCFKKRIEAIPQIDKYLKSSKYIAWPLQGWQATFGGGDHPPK
Sequence of HuR (Q15717 whole entry, one chain of several): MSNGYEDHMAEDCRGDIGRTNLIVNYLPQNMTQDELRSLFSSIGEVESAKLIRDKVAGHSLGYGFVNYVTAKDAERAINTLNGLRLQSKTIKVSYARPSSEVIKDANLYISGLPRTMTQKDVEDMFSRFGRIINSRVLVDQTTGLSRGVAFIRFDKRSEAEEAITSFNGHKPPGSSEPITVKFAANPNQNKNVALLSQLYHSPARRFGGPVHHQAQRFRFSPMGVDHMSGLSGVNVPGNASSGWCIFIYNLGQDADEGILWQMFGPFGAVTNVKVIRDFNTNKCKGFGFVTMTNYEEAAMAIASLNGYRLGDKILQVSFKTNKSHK

B1: RNA #9 (ssRNA)
RNA: UGCUGACAAUUCUCGUGCCUCUCCAUGGUCUGCGGCUGAGAAGGUUCGCCAAGUUGUGGGCCGGGGUGC
binding result [1]: no binding

B2: β-catenin RNA aptamer (ssRNA)
RNA: GGACGCGUGGUACCAGGCCGAUCUAUGGACGCUAUAGGCACACCGGAUACUUUAACGAUUGGCUAAGCUUCCGCGGGGAUC
Kd [2]: 5 nM
binding result [3]: no binding
binding result [4]: no binding
binding result [5]: no binding

B3: RNA #20 (ssRNA)
RNA: UUCCCGCGGUGGAAAGCGUUGGGUAGCGGCUCCGAUGGAGAGUGGUGCGCCUUGCCUGCUGGCCUUG
binding result [6]: no binding

B4: TRE (TCF responsive element) (dsDNA)
DNA 1: GGTAAGATCAAAGGG
DNA 2: CCCTTTGATCTTACC
binding result [7]: binds
